US20210386836

Key:
[1] = molecular target: ENA-78
[2] = molecular target: T1, C2a, P06681
T1 chain: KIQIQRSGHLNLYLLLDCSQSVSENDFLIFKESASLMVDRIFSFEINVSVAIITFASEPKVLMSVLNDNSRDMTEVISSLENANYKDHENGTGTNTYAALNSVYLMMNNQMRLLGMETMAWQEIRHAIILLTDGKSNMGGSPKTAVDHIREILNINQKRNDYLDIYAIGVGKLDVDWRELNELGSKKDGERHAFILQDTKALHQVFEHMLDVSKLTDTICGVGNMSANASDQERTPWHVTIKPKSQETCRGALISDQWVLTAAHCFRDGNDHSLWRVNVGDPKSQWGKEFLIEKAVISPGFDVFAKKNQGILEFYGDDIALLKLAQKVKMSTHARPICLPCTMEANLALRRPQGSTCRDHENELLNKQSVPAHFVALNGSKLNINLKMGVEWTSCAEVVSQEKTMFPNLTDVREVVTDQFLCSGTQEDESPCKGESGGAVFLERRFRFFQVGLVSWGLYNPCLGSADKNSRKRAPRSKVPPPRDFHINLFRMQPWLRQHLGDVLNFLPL

[3] = molecular target: T2, Factor H, P08603
T2 chain: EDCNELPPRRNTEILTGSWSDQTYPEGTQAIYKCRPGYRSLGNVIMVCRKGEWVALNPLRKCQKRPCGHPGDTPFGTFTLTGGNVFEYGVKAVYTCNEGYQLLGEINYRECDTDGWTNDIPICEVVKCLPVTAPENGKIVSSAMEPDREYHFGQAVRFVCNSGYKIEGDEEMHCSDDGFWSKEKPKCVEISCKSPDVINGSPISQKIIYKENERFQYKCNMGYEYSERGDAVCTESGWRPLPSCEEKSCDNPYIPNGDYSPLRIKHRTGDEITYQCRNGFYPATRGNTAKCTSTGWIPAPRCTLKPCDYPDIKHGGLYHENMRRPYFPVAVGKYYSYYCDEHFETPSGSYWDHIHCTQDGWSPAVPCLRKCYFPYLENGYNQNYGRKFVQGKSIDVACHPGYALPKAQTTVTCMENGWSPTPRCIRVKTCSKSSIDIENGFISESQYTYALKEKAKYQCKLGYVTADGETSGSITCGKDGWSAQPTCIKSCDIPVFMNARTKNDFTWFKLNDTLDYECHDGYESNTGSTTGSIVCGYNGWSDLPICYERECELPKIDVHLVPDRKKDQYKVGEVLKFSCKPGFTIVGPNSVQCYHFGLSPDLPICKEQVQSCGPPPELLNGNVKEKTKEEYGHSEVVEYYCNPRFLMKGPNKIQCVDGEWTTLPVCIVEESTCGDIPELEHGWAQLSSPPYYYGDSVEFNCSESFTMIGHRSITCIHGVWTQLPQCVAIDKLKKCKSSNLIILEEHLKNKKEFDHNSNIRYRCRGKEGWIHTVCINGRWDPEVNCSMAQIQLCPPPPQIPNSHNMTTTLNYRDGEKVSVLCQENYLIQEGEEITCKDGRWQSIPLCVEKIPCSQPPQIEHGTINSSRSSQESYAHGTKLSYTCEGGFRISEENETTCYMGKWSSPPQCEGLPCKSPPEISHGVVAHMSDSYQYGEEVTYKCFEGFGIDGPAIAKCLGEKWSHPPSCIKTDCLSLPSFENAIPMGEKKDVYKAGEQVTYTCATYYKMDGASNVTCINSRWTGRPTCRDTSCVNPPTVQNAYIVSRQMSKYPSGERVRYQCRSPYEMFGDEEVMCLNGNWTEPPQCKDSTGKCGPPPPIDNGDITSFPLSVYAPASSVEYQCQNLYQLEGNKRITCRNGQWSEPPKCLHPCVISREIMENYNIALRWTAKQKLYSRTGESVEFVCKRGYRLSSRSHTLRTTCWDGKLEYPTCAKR

[4] = molecular target: IP-10
[5] = molecular target: C4
[6] = molecular target: TNF-α
[7] = molecular target: T3, β-casein
T3 sequence (P02666 16-224, species assumed, looked up): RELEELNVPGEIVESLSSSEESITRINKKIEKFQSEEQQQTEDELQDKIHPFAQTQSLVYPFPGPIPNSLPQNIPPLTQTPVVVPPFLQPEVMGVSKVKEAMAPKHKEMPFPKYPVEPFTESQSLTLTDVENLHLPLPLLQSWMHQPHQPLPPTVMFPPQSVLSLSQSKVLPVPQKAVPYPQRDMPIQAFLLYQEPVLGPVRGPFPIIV

[8] = molecular target: Factor B, P00751
[9] = molecular target: cytochrome C
[10] = molecular target: lysozyme
[11] = molecular target: haemoglobin
[12] = molecular target: C3a, P01024
[13] = molecular target: IL-17
[14] = molecular target: α-casein
[15] = molecular target: C3, P01024
[16] = molecular target: T4, C2, P06681
T4 chain: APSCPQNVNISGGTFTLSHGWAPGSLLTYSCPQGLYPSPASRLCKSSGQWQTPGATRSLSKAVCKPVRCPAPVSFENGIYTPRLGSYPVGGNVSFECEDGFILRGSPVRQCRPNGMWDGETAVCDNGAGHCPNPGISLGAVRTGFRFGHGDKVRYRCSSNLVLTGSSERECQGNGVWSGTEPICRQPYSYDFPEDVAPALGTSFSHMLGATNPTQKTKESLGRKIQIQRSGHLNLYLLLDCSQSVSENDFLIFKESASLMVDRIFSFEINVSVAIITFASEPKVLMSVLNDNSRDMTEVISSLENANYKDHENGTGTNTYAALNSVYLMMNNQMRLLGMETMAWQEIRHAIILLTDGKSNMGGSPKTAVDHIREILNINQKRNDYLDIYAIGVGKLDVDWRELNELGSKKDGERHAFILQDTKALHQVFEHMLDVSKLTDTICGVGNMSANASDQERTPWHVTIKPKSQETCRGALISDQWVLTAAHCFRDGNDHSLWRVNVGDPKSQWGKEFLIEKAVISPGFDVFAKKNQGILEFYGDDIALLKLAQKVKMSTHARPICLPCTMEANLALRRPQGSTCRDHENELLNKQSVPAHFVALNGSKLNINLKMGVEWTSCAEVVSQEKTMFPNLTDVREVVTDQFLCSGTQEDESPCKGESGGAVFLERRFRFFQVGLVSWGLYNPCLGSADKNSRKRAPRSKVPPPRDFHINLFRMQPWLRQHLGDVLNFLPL

[17] = molecular target: fibrinogen

Chain of Factor B, P00751 (P00751 26-764): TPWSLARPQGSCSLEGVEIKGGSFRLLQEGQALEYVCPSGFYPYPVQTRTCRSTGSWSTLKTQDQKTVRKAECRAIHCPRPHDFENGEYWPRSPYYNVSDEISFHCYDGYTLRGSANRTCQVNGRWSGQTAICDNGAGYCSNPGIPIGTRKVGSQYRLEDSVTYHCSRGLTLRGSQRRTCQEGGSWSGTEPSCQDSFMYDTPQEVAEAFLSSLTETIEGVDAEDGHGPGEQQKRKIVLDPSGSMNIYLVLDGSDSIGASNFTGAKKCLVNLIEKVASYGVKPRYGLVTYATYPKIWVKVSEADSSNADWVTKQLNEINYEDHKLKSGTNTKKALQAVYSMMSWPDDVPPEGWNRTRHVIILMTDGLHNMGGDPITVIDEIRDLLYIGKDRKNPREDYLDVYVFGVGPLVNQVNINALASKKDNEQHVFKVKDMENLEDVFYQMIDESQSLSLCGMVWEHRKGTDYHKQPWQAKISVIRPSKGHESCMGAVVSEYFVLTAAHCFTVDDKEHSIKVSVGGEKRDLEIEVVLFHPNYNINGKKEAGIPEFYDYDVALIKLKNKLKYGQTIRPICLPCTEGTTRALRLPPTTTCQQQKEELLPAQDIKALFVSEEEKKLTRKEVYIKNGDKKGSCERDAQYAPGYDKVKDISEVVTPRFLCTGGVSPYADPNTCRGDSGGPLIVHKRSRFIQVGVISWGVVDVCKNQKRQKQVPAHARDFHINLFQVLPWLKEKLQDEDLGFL

B1: PrtV(Pro-B) (protein)
chain: DTVNGSESVKTEATQASGSSVQDNATAKTTVTTNSNSSNNVSNVQTDTVKEAATSNVDSVASQNQATTAQQAKTTADTADQTVPPTTYKDHVKGNVQTAWDNGYKGQGMVVAVIDSGADTNHKDFSKAPESPAISKEDADKKISELGYGKYASEKFPFVYNYASRDNNWVKDDGPDASEHGQHVAGIIGADGQPNGNERYAVGVAPETQLMMMRVFNDQFADENTDDIAQAIYDAVKLGANVIQMSLGQGVAAANLNDVEQKAVEYATQHGVFVSISASNNGNSASVTGEEVPYKPGGADGNFEPFSSSTVANPGASRNAMTVAAENSVVGAGDDMADFSSWGPLQDFTLKPDVSAPGVSVTSTGNDNRYNTMSGTSMAGPFNAGVAALVMQRLKATTNLNGADLVQATKALIMNTAKPMTQQGYDTPVSPRRQGAGEIDAGAATESPVYVVAADGTSSVSLRKVGDSTQFALTFKNLSDKDQTYTFDDFGGGLTEVRDADTGTFHDVYLAGAHVYGNKTVTVKAGQSATYNFTLSLTGLKENQLVEGWLRFVGNDGQNQLVVPYLAYYGDMTSEDVFDKAANQEGTVYGGNYFVNEDNYPRGVADEDSLKALVNLEGNYNWQQVAKLYQDGKVAFSPNADGKSDLLKPYAFVKQNLKDLKVEVLDKSGKVVRVVADEQGLDKSYYESGVNKDVTLSVSMRNNPNTLAWDGKVYDDKAGEMVNAADGEYTYRYVATLYNDGVNKVQTADYPVVIDTTAPVLSNVKYDAATHTLSFDYKDTGSGFTDYSYAVVKVNDKTFGYKLNDGKNSKFLDAAKTSGTFKAVLGSDTLAALTAAKNALSVAVSDVADNTSTVTLLVNGNNDATTKVSVWNATNGLELDQSSPDYQAATSTYNLRGNATSDFYYNGALVQVDNSGNFVVPVSTSDTAVVFTSDAAGKNVVYKLNTATPKAVFAWQVNNTVKENFGIVLDTVVSNNKDDVVVQAAVTKGDNVEAYARDYFTGAVYKADVKDGLATFHVKVTNNSGRTVLLGWTEVVGPTFNDVQRTSANGVYLGVDTDTENPTPAPAFTSADQLGTNVVQEKADSATIGNPGDLPGHSLKDLTTRADANPDIHFDYLKDNDYNWVGAQAVKDGVYNPSTQVFTLTGKVDPNVKSLVVLGDSYNEDDPVNKVNLNSDGTFSFQFHTAPTSQRPVAYIYTKDDGSTTRGTMELILDTVLPTLSLNNVANLQLDSNGDYQVYTNNKDFSVSGEATDNLDGYRFFFNGDNDYREFHNSGVNFVAEAHQDGSTVTNPYPAYKFSKTFNLADATGETTHVYTLSVVDLTGNTVTRKFYVHY
- protein cleavage assay (SDS-PAGE) [1]: has activities against
- proteolytic activity (SDS-PAGE) [2]: None of the complement proteins tested show evidence of breakdown
- proteolytic activity (SDS-PAGE) [3]: None of the complement proteins tested show evidence of breakdown
- protein cleavage assay (SDS-PAGE) [4]: has activities against
- proteolytic activity (SDS-PAGE) [5]: None of the complement proteins tested show evidence of breakdown
- protein cleavage assay (SDS-PAGE) [6]: has activities against
- casein activity assay (SDS-PAGE) [7]: cleaving only α-casein in a limited manner
- proteolytic activity (SDS-PAGE) [8]: None of the complement proteins tested show evidence of breakdown
- digestion (SDS-PAGE) [9]: did not digest
- digestion (SDS-PAGE) [10]: did not digest
- digestion (SDS-PAGE) [11]: did not digest
- protein cleavage assay (SDS-PAGE) [12]: has activities against
- proteolytic activity (control of enzyme stock) [12]: shown to be active against C3a
- protein cleavage assay (SDS-PAGE) [13]: has activities against
- casein activity assay (SDS-PAGE) [14]: cleaving only α-casein in a limited manner
- proteolytic activity (SDS-PAGE) [15]: None of the complement proteins tested show evidence of breakdown
- proteolytic activity (SDS-PAGE) [16]: None of the complement proteins tested show evidence of breakdown
- digestion (SDS-PAGE) [17]: did not digest
